Results published in article PMC2020459, “SELDI-TOF mass spectrometry of High-Density Lipoprotein” (Proteome Science, 2007).

Target: the molecule itself
Assay: affinity purification with mass spectrometry; anti-apo A-II monoclonal antibody covalently bound on a PS-20 protein chip; plasma diluted 1:2 in TBS pH 7.4 or purified HDL, 2 h at room temperature; washes 4 x TBS, TBS-Tween 0.005 %, 5 mM Hepes; SELDI-TOF MS of captured native HDL

B1: apolipoprotein A-II (natural protein)
chain: not shown
notes: apolipoprotein A-II of human plasma HDL; dimer at about 17.4 kDa (17099, 17221 and 17352 m/z); Three dimer species were seen: the full dimer and dimers lacking one or two terminal (probably C-terminal) glutamine residues; The dimer is probably the disulfide-linked one (my surmise); Present on native HDL particles; also called apo A-II; source: endogenous, human plasma (HDL particles captured …)
**Q.** For B1, which “stoichiometry N” value is on record?
**A.** 2
